Measurements reported in patent US20230057461A1 (US Dept. of Health and Human Services, published 2023).

Biological target: T1, Rab escort protein REP-1 (UniProt P24386 1-653)
T1 construct: Endogenous protein detected by Western blot (Abcam cat# 134964)
T1 sequence (looked up): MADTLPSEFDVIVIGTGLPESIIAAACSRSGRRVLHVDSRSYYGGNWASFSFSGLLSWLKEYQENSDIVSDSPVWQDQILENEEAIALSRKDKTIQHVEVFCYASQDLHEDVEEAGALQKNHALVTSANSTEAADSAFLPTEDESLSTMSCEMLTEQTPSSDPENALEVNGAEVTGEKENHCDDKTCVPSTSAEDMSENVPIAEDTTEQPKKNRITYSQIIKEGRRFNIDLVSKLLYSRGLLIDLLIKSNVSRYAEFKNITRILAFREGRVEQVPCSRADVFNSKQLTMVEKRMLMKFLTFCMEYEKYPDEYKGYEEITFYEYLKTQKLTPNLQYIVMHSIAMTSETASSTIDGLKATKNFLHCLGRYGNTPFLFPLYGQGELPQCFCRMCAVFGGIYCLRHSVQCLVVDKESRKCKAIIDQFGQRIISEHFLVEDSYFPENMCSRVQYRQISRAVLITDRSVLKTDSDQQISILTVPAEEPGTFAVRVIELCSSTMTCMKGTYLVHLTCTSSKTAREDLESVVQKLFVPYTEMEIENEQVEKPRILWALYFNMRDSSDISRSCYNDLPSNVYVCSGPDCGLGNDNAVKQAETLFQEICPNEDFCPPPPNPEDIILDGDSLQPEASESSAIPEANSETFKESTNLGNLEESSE
Assay: co-immunoprecipitation of GFP-Rab13 with GFP-Trap beads from MDA-MB-231 lysates, Western blot
Method: For immunoprecipitations, cells were lysed with a buffer containing 50mM Tris pH 7.4, 1% NP-40, 150mM NaCl, 10mM MgC12, 10% glycerol and a cocktail of protease and phosphatase inhibitors (Thermo Fischer Scientific, cat# 1861281). Lysates were cleared by centrifugation and mixed with GFP-Trap Magnetic Agarose beads (Chromotek, cat# gtma-10) for 1.5 h, at 4° C. Immobilized complexes were eluted with Laemmli's buffer and analyzed by SDS-PAGE and immunoblotting.

- binding result: binds
B1: GFP-Rab13 (N-terminally GFP-tagged human Rab13) (other, UniProt P51153 1-203, looked up, not shown: large carriers)
chain: MAKAYDHLFKLLLIGDSGVGKTCLIIRFAEDNFNNTYISTIGIDFKIRTVDIEGKKIKLQVWDTAGQERFKTITTAYYRGAMGIILVYDITDEKSFENIQNWMKSIKENASAGVERLLLGNKCDMEAKRKVQKEQADKLAREHGIRFFETSAKSSMNVDEAFSSLARDILLKSGGRRSGNGNKPPSTDLKTCDKKNTNKCSLG
notes: Stably expressed in MDA-MB-231 cells from constructs with the wild type or the delta-PMO Rab13 3'UTR; the encoded protein is the same; Assayed from cell lysates; also called exogenous GFP-Rab13; exogenous Rab13
